The target of series [1] is T1, Nme1Cas9 (Neisseria meningitidis, UniProt C9X1G5 1-1082).
T1 sequence: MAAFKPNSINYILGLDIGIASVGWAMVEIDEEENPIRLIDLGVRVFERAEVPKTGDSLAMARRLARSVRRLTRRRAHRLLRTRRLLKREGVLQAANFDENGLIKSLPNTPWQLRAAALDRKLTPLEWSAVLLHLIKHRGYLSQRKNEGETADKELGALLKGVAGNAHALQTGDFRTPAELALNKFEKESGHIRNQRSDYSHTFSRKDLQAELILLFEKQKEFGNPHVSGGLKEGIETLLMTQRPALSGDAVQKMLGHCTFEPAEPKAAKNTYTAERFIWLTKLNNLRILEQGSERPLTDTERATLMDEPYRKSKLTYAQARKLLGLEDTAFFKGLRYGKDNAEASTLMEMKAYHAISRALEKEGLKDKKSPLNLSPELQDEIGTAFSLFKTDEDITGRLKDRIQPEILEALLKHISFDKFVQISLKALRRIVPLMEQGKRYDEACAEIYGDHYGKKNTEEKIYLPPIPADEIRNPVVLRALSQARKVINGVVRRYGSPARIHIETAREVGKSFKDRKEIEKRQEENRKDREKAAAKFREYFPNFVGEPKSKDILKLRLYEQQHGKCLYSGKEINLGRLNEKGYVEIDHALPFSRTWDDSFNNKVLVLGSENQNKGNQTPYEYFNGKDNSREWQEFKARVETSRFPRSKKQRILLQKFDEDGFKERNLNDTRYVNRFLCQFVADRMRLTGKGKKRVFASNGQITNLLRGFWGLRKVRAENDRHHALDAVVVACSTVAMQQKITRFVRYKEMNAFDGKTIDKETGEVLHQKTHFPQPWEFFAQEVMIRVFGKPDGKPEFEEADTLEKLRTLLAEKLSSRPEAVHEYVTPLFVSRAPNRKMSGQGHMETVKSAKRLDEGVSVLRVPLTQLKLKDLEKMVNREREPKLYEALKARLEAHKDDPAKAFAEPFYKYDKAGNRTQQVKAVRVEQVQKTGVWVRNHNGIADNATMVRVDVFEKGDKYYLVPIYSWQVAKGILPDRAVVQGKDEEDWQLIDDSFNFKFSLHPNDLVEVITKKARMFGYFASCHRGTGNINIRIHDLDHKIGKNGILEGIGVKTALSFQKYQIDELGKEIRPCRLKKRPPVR
The series can be described thus: filter binding; no AcrIIC2Nme; 5 mM MgCl2; Filter binding: 20 mM Tris pH 7.5, 100 mM KCl, 5 mM MgCl2, 1 mM DTT, 5% glycerol, 0.01% Igepal, 10 ug/mL yeast tRNA, 10 ug/mL BSA, 37 C, 30 min; ITC: 300 mM NaCl, 20 mM Tris pH 7.5, 20 C; gel filtration: 300 mM NaCl, 20 mM Tris pH 7.5; pull-down: 50 mM Tris pH 7.5, 200 mM NaCl, 5% glycerol, 20 mM imidazole. Conditions: protein: recombinant; label: radiolabeled; sgRNA with repeat:anti-repeat hairpin and stem loops 1 and 2. (SEC sorts molecules by how far they enter the pores of the column.)

For series [2], the target named is T1, Nme1Cas9. The series can be described thus: filter binding; no AcrIIC2Nme; Filter binding: 20 mM Tris pH 7.5, 100 mM KCl, 5 mM MgCl2, 1 mM DTT, 5% glycerol, 0.01% Igepal, 10 ug/mL yeast tRNA, 10 ug/mL BSA, 37 C, 30 min; ITC: 300 mM NaCl, 20 mM Tris pH 7.5, 20 C; gel filtration: 300 mM NaCl, 20 mM Tris pH 7.5; pull-down: 50 mM Tris pH 7.5, 200 mM NaCl, 5% glycerol, 20 mM imidazole. The following applies: protein: recombinant; label: radiolabeled; hairpin.

B1: full length sgRNA (filter binding) (structured_RNA)
RNA: GGUCUGUAAGCGGAUGCCAUAUGGUUGUAGCUCCCUUUCUCGAAAGAGAACCGUUGCUACAAUAAGGCCGUCUGAAAAGAUGUGCCGCAACGCUCUGCCCCUUAAAGCUUCUGCUUUAACGGGCUU
On to B1, for which the Kd in series [1] is 0.24 ± 0.14 nM.

B2: repeat:anti-repeat (cr:tracr) (structured_RNA)
RNA: GGUUGUAGCUCCCUUUCUCGAAAGAGAACCGUUGCUACAAUAA
Take B2: in series [2], the binding result is reported as “binds”.

By Kd is commonly meant the constant that tells how readily two partners part at equilibrium.

The values above are taken from publication PMC6594998, “Inhibition of CRISPR-Cas9 ribonucleoprotein complex assembly by anti-CRISPR AcrIIC2”.
